EP1992633A1 (HUMAN GENOME SCIENCES, INC., dated 2008)

Legend:
Assay in all cases: method not described (cites Mazzei et al. 1995)
TNFR1 = target: T1, TNFR1 (UniProt P19438 30-211, limits assumed)
T1 sequence (looked up): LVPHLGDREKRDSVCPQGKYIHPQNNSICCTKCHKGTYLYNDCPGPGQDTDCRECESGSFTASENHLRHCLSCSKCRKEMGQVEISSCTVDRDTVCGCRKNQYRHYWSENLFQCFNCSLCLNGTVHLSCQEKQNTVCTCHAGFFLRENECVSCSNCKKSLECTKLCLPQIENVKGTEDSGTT

TNFR2 = target: T2, TNFR2 (UniProt P20333 23-257, limits assumed)
T2 sequence (looked up): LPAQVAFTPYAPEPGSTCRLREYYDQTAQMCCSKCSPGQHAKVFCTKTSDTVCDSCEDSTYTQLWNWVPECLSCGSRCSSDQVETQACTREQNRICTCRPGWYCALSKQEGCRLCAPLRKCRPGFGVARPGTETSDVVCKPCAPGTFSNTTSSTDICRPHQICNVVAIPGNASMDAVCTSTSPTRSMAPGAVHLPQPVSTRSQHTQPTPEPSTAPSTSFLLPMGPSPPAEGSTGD

Fas = target: T3, Fas (UniProt P25445 26-173, limits assumed)
T3 sequence (looked up): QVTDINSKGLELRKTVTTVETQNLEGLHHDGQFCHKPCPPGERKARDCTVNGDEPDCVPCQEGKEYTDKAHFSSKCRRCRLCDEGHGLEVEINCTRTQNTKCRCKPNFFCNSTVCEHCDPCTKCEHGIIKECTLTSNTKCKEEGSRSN

DR3 = target: T4, DR3 (UniProt Q93038 25-199, limits assumed)
T4 sequence (looked up): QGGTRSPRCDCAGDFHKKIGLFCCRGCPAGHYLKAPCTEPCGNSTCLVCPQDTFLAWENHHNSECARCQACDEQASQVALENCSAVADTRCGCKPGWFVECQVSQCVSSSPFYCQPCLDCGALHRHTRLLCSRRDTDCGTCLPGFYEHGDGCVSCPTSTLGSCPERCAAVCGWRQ

DR4 = target: T5, DR4 (UniProt O00220 24-239, limits assumed)
T5 sequence (looked up): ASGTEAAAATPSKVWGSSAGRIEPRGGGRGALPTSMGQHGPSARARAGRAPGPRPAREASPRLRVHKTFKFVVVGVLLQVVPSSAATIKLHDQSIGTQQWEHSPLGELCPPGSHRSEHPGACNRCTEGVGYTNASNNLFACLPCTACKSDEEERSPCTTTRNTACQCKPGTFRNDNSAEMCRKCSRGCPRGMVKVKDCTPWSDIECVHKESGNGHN

Measured: binding result

B1: truncated version of VEGI-alpha corresponding to the putative extracellular domain consisting of residues 38-174, expressed in E. coli (ligand)
chain: ALHWEHELGLAFTKNRMNYTNKFLLIPESGDYFIYSQVTFRGMTSECSEIRQAGRPNKPDSITVVITKVTDSYPEPTQLLMGTKSVCEVGSNWFQPIYLGAMFSLQEGDKLMVNVSDISLVDYTKEDKTFFGAFLL
notes: also called VEGI-alpha deletion mutant; the mutant
no binding: TNFR1 | TNFR2 | Fas | DR3 | DR4
